# Measurements reported in patent US20180155451A1 (published 2018).
# T1: FcγRIIa H (human, UniProt P12318 34-217)
# T1 construct: extracellular domain; also called FcγRIIa type H; 2aH
# T1 sequence (looked up): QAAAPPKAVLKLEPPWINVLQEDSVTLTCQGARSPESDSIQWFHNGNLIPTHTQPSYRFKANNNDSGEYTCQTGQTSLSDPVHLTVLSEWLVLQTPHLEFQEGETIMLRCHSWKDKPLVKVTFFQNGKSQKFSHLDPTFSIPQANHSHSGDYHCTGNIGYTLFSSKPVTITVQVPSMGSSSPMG
# T2: FcγRIIb (human, UniProt P31994 43-217)
# T2 construct: extracellular domain; also called 2b
# T2 sequence (looked up): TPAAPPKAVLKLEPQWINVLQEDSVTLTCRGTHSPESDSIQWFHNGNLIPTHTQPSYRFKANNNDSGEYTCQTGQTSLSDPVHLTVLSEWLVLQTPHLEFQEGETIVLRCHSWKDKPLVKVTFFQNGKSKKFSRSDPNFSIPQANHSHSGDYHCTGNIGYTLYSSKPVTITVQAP
# B1: GpH7-A5/GpH7-B3 variant K326_16H/GpL16-k0 (antibody, human IgG1, kappa)
# heavy 1: not shown
# heavy 2: not shown
# light: DIVMTQSPLSLPVTPGEPASISCQASESLVHSNRNTYLHWYLQKPGQSPQLLIYKVSNRFSGVPDRFSGSGSGTDFTLKISRVEAEDVGVYYCSQNTHVPPTFGQGTKVEIERTVAAPSVFIFPPSDEQLKSGTASVVCLLNNFYPREAKVQWKVDNALQSGNSQESVTEQDSKDSTYSLSSTLTLSKADYEKHKVYACEVTHQGLSSPVTKSFNRGEC
# notes: heterodimerized IgG1, mutation in one H chain only; also called He Ab
# B2: GpH7-A5/GpH7-B3 variant K334_02A/GpL16-k0 (antibody, human IgG1, kappa)
# heavy 1: not shown
# heavy 2: not shown
# light: B1 light
# notes: as for B1
# B3: GpH7-A5/GpH7-B3 variant N325_09D/GpL16-k0 (antibody, human IgG1, kappa)
# heavy 1: not shown
# heavy 2: not shown
# light: B1 light
# notes: as for B1
# B4: GpH7-A5/GpH7-B3 variant N325_07I/GpL16-k0 (antibody, human IgG1, kappa)
# heavy 1: not shown
# heavy 2: not shown
# light: B1 light
# notes: as for B1
# B5: GpH7-A5/GpH7-B3 variant A330_05P/GpL16-k0 (antibody, human IgG1, kappa)
# heavy 1: not shown
# heavy 2: not shown
# light: B1 light
# notes: as for B1
# B6: GpH7-A5/GpH7-B3 variant A327_07I/GpL16-k0 (antibody, human IgG1, kappa)
# heavy 1: not shown
# heavy 2: not shown
# light: B1 light
# notes: as for B1
# B7: GpH7-A5/GpH7-B3 variant K334_18N/GpL16-k0 (antibody, human IgG1, kappa)
# heavy 1: not shown
# heavy 2: not shown
# light: B1 light
# notes: as for B1
# B8: GpH7-A5/GpH7-B3 variant A330_01G/GpL16-k0 (antibody, human IgG1, kappa)
# heavy 1: not shown
# heavy 2: not shown
# light: B1 light
# notes: as for B1
# B9: GpH7-A5/GpH7-B3 variant K334_10E/GpL16-k0 (antibody, human IgG1, kappa)
# heavy 1: not shown
# heavy 2: not shown
# light: B1 light
# notes: as for B1
# B10: GpH7-A5/GpH7-B3 variant L328_10E/GpL16-k0 (antibody, human IgG1, kappa)
# heavy 1: not shown
# heavy 2: not shown
# light: B1 light
# notes: as for B1
# B11: GpH7-A5/GpH7-B3 variant L328_03V/GpL16-k0 (antibody, human IgG1, kappa)
# heavy 1: not shown
# heavy 2: not shown
# light: B1 light
# notes: as for B1
# B12: GpH7-A5/GpH7-B3 variant L328_19Q/GpL16-k0 (antibody, human IgG1, kappa)
# heavy 1: not shown
# heavy 2: not shown
# light: B1 light
# notes: as for B1
# B13: GpH7-A5/GpH7-B3 variant N325_13S/GpL16-k0 (antibody, human IgG1, kappa)
# heavy 1: not shown
# heavy 2: not shown
# light: B1 light
# notes: as for B1
# B14: GpH7-A5/GpH7-B3 variant L328_15Y/GpL16-k0 (antibody, human IgG1, kappa)
# heavy 1: not shown
# heavy 2: not shown
# light: B1 light
# notes: as for B1
# B15: GpH7-A5/GpH7-B3 variant K326_15Y/GpL16-k0 (antibody, human IgG1, kappa)
# heavy 1: not shown
# heavy 2: not shown
# light: B1 light
# notes: as for B1
# B16: GpH7-A5/GpH7-B3 variant L328_04F/GpL16-k0 (antibody, human IgG1, kappa)
# heavy 1: not shown
# heavy 2: not shown
# light: B1 light
# notes: as for B1
# B17: GpH7-A5/GpH7-B3 variant N325_04F/GpL16-k0 (antibody, human IgG1, kappa)
# heavy 1: not shown
# heavy 2: not shown
# light: B1 light
# notes: as for B1
# B18: GpH7-A5/GpH7-B3 variant P331_03V/GpL16-k0 (antibody, human IgG1, kappa)
# heavy 1: not shown
# heavy 2: not shown
# light: B1 light
# notes: as for B1
# B19: GpH7-A5/GpH7-B3 variant L328_07I/GpL16-k0 (antibody, human IgG1, kappa)
# heavy 1: not shown
# heavy 2: not shown
# light: B1 light
# notes: as for B1
# B20: GpH7-A5/GpH7-B3 variant S267_12R/GpL16-k0 (antibody, human IgG1, kappa)
# heavy 1: not shown
# heavy 2: not shown
# light: B1 light
# notes: as for B1
# B21: GpH7-A5/GpH7-B3 variant S267_11K/GpL16-k0 (antibody, human IgG1, kappa)
# heavy 1: not shown
# heavy 2: not shown
# light: B1 light
# notes: as for B1
# Molecular target: T1, FcγRIIa H
# Assay: SPR (Biacore), relative binding vs GpH7-A5/GpH7-B3/GpL16-k0
# Procedure: (§1) The heterodimerized antibodies He Abs in which one of the H chains was introduced with an alteration were assayed for their binding activities to each activating FcγR and inhibitory FcγR according to the method described in Example 4. […] The activating FcγRs in FIGS. 26, 27, 28, and 29 are FcγRIa, FcγRIIa (R), FcγRIIa (H), and FcγRIIIa, respectively.
# (§2) Analysis of interaction between objective antibody and the FcγR was carried out using Biacore T100 (GE Healthcare). HBS-EP+ (GE Healthcare) was used as the running buffer, and the measurement temperature was set to 25° C. Chips produced by immobilizing the antigen peptide by the amine coupling method to a Series S Sencor Chip CM5 (GE Healthcare), or alternatively, chips produced by allowing preliminarily biotinylated antigen peptides to interact with and immobilize onto a Series S Sensor Chip SA (certified) (GE Healthcare) were used. Antibodies of interest were captured onto an antigen peptide-immobilized chip, and allowed to interact to each FcγR diluted with running buffer. To regenerate and repeatedly use the chip, the antibodies captured on the chip were washed off by reacting 10 mM glycine-HCl, pH 1.5.
row,He/Con_2aH,Binder
1,97.9 % of control He Ab (=100),B1
2,97 % of control He Ab (=100),B2
3,53.1 % of control He Ab (=100),B3
4,38.1 % of control He Ab (=100),B4
5,85.7 % of control He Ab (=100),B5
6,58.4 % of control He Ab (=100),B6
7,99.7 % of control He Ab (=100),B7
8,99 % of control He Ab (=100),B8
9,98.2 % of control He Ab (=100),B9
10,55.5 % of control He Ab (=100),B10
11,97.8 % of control He Ab (=100),B11
12,86.8 % of control He Ab (=100),B12
13,79.7 % of control He Ab (=100),B13
14,90 % of control He Ab (=100),B14
15,98.3 % of control He Ab (=100),B15
16,71.7 % of control He Ab (=100),B16
17,33.4 % of control He Ab (=100),B17
18,82.5 % of control He Ab (=100),B18
19,93.9 % of control He Ab (=100),B19

# Molecular target: T2, FcγRIIb
# Assay: as above
# Procedure: as §1, §2
row,He/Con_2b,Binder
1,11.3 % of control He Ab (=100),B20
2,119 % of control He Ab (=100),B1
3,108 % of control He Ab (=100),B2
4,124 % of control He Ab (=100),B3
5,171 % of control He Ab (=100),B4
6,137 % of control He Ab (=100),B5
7,127 % of control He Ab (=100),B6
8,12.2 % of control He Ab (=100),B21
9,115 % of control He Ab (=100),B7
10,104 % of control He Ab (=100),B8
11,114 % of control He Ab (=100),B9
12,172 % of control He Ab (=100),B10
13,126 % of control He Ab (=100),B11
14,105 % of control He Ab (=100),B12
15,177 % of control He Ab (=100),B13
16,193 % of control He Ab (=100),B14
17,159 % of control He Ab (=100),B15
18,219 % of control He Ab (=100),B16
19,143 % of control He Ab (=100),B17
20,119 % of control He Ab (=100),B18
21,160 % of control He Ab (=100),B19
